Data: article PMC4004530 (Circulation research, 2013)
Like-named read-outs stand apart in the source and are kept apart here.

B1: Fluorescent FKBP12.6 (FK506 binding protein 12.6 labeled with Alexa Fluor 488) (natural protein)
chain: MGVEIETISPGDGRCFPKKGQTAVVHYTGMLQNGKKFDSSRDRNKPFKFRIGKQEVIKGFEEGAAQMSLGQRAKLTITPDVAYGATGHPGVIPPNATLIFDVELLNLE
modifications: Alexa Fluor 488 label (site not stated)

Columns and labels:
[1] = biological target: Cardiac ryanodine receptor (RyR2) in rat ventricular myocytes (rat (endogenous in ventricular myocytes)) (UniProt B0LPN4); experiment: FRET or BRET
Sequence of Cardiac ryanodine receptor (RyR2) in rat ventricular myocytes (rat (endogenous in ventricular myocytes)) (B0LPN4 whole entry): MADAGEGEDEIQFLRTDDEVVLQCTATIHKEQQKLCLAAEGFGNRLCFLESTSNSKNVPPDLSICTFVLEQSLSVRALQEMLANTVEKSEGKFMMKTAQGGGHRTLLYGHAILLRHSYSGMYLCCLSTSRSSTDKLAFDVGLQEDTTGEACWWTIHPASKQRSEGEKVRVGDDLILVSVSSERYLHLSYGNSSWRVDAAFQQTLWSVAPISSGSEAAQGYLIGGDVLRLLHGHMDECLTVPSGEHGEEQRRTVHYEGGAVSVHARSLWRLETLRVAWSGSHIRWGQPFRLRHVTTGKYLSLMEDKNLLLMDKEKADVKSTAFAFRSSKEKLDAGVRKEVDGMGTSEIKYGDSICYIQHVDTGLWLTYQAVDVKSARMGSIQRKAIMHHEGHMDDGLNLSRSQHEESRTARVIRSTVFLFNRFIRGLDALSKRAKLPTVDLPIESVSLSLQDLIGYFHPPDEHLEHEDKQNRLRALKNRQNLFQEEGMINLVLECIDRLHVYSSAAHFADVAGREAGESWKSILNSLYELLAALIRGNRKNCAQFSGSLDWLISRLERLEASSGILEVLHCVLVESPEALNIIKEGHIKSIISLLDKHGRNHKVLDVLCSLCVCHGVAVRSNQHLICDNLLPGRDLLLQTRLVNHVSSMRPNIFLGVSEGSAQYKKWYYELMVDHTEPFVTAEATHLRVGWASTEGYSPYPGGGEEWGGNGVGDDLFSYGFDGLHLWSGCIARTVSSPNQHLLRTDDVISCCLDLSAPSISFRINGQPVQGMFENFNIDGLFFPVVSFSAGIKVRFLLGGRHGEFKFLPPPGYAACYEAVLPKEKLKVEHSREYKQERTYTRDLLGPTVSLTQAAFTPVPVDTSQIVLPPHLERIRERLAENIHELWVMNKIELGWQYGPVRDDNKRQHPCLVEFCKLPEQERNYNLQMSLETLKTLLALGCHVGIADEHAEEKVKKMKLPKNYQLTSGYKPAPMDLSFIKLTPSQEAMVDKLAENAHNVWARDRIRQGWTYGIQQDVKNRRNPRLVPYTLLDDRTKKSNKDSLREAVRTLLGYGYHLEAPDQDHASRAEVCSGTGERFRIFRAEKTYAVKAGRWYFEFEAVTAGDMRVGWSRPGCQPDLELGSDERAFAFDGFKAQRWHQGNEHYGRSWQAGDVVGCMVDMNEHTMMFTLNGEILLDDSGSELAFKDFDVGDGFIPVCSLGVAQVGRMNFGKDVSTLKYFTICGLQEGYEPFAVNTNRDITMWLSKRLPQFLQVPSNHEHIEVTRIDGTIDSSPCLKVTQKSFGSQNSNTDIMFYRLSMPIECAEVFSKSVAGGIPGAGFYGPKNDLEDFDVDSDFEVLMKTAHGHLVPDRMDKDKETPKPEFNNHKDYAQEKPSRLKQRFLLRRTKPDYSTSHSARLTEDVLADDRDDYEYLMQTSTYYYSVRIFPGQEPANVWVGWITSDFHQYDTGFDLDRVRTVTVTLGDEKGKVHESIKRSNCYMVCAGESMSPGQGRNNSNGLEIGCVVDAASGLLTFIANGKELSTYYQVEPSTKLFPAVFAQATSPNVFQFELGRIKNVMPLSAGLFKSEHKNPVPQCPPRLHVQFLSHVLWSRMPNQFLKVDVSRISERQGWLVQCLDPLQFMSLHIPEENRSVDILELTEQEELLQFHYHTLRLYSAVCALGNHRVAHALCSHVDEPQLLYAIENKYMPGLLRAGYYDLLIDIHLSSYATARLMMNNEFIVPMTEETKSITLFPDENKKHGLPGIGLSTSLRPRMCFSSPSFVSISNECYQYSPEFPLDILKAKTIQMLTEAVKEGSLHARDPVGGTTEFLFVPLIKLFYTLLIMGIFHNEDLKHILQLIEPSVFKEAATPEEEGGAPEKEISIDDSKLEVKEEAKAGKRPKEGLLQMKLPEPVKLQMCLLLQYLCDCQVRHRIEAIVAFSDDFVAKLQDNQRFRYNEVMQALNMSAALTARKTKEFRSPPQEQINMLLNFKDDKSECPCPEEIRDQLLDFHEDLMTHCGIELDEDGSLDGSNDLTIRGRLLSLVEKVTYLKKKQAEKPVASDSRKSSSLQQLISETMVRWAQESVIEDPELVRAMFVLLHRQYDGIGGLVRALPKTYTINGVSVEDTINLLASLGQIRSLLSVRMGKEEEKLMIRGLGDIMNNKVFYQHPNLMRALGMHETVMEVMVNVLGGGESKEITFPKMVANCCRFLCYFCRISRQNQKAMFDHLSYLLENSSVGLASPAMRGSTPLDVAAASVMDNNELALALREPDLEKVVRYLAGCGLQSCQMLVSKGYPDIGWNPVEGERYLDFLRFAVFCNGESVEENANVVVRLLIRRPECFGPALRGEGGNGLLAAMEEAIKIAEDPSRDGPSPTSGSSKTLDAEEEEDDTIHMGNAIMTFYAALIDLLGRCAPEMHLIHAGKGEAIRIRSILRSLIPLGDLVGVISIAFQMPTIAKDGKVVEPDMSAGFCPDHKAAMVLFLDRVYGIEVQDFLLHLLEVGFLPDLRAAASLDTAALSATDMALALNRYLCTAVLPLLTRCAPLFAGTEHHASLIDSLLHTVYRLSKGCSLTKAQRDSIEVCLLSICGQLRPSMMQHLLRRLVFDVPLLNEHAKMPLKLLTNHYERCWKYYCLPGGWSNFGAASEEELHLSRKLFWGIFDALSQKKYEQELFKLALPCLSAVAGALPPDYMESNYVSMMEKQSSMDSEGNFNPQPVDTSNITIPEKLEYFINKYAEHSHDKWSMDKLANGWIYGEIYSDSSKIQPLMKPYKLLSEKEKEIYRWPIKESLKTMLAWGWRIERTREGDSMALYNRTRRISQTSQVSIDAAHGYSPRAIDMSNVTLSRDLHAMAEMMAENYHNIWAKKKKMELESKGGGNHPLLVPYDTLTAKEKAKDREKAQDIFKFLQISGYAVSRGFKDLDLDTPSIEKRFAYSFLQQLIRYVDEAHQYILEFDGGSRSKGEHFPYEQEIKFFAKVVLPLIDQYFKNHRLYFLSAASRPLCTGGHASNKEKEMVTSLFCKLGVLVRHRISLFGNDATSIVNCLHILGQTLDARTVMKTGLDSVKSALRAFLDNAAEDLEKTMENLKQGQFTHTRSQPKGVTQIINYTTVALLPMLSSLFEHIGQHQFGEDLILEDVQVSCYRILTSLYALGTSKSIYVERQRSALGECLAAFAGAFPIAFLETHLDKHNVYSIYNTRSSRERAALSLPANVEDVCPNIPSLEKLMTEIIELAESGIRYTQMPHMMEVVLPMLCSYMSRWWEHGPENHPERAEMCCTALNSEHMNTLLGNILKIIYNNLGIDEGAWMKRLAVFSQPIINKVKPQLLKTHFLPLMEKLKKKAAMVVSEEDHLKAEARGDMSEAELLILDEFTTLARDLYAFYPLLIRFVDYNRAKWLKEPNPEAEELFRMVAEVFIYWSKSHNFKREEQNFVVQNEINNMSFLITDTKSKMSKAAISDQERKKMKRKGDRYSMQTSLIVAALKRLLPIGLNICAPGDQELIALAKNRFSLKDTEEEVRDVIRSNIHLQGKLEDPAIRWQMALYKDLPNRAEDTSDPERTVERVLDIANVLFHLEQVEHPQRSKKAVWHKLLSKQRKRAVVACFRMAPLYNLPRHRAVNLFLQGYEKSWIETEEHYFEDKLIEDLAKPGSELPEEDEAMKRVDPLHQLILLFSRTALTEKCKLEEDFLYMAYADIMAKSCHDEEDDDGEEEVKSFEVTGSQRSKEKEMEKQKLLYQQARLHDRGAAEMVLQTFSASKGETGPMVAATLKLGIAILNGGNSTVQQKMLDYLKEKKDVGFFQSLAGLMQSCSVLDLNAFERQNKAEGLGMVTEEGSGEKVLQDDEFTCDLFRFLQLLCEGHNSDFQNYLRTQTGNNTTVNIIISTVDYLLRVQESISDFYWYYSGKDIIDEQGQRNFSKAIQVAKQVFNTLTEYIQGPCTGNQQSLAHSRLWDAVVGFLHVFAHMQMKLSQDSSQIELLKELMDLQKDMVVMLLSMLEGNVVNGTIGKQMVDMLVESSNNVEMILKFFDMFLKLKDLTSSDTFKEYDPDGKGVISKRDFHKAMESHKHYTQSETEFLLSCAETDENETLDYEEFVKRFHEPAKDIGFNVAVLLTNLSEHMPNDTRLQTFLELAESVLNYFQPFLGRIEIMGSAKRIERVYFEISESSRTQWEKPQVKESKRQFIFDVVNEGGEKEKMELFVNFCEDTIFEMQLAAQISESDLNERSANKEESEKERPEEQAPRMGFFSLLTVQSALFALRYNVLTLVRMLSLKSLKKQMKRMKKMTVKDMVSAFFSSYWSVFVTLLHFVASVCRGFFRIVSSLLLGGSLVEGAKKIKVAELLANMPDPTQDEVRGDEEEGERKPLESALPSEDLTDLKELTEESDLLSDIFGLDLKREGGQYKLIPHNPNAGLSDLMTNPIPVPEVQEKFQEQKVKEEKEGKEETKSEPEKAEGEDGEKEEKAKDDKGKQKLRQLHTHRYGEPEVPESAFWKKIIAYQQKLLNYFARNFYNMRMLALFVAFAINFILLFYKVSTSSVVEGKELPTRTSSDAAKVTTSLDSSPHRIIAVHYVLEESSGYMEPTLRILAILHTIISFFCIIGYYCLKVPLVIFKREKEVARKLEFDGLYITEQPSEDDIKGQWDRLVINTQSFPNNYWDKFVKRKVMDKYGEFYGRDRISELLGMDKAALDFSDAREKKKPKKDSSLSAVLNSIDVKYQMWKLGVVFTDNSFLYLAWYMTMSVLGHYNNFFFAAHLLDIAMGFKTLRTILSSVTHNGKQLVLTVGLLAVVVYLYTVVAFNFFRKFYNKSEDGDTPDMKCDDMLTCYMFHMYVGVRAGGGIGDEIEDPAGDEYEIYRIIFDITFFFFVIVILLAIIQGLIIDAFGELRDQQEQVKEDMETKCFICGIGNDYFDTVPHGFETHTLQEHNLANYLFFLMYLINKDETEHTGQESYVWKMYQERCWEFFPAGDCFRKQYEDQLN

[2] = biological target: Cardiac ryanodine receptor (RyR2) in rat ventricular myocytes (rat (endogenous in ventricular myocytes)) (UniProt B0LPN4); experiment: FRET or BRET; remark: listed apart in the source
[3] = biological target: Cardiac ryanodine receptor (RyR2) in rat ventricular myocytes (rat (endogenous in ventricular myocytes), UniProt B0LPN4 1-4955); experiment: other fluorescence titration
Sequence of Cardiac ryanodine receptor (RyR2) in rat ventricular myocytes (B0LPN4 whole entry): as above

Molecule	Kd [1]	Kd [2]	Kd [3]
Fluorescent calmodulin (CaM labeled with Alexa Fluor 568) (from UniProt P0DP23 1-149) (natural protein)	12 nM	10 nM	
B1			0.8 ± 0.1 nM
